The values below come from article PMC9290910, “Neuropilin‐1 is required for endothelial cell adhesion to soluble vascular endothelial growth factor receptor 1” (The Febs Journal, 2021).

One assay concerns sVEGFR‐1. Briefly: SPR, α5β1 integrin binding to immobilized sVEGFR‐1. On the set-up: species or system human. The conditions noted are these: sVEGFR‐1 immobilized, α5β1 integrin 80 nM-1 μM. On the procedure:
Fig. 7 sVEGFR‐1/α5β1 integrin interaction. (A) SPR analysis of the interaction between sVEGFR‐1 and α5β1 integrin. sVEGFR‐1 is immobilized on sensor chips and α5β1 integrin is injected at different concentrations (from bottom to top: 80 nM, cyan; 160 nM, red; 350 nM, green; 600 nM, blue; and 1 μM, black). […] (B) Secondary structure representation of the 3D structure of VEGFR‐1 Ig‐like domain II. β‐strands are represented by arrows and labelled from A to H; loops are shown as tubular ribbons; the N‐ and C‐terminal ends of the domain are indicated by labels. Colour coding: peptide 12 (interacting with α5β1 integrin) is blue; Flt2‐11 peptide (interacting with NRP‐1) is yellow in the five‐residue NITVT region corresponding to the Flt2‐5 peptide (see text), and green in the remaining six‐residues region; the rest of the domain is magenta. (C) Proposed mechanism of action of Flt2‐11 peptide. Left: Light blue arrows indicate the high‐affinity interactions: (i) between NRP‐1 (yellow) and α5β1 integrin (black) on the EC membrane; and (ii) between NRP‐1 on the EC membrane and the sVEGFR‐1 substrate (green). The dark blue arrow indicates the low‐affinity interaction between α5β1 integrin on the EC membrane and the sVEGFR‐1 substrate. The low‐affinity interaction is stabilized by the two high‐affinity interactions, and the angiogenic stimulus is triggered. Centre: The Flt2‐11 peptide inhibits the high‐affinity interaction between NRP‐1 on the EC membrane and the sVEGFR‐1 substrate. The low‐affinity interaction between α5β1 integrin on ECs and the sVEGFR‐1 substrate is not sufficiently stable to trigger the angiogenic stimulus that starts upon integrin engagement. […]
(§1) SPR experiments were carried out using a BIACORE X system (Biacore AB, Uppsala, Sweden). […] The reaction was carried out in 20 mM sodium acetate at pH 5.0, which is about 2 points below the theoretical NRP‐1 isoelectric point calculated using the program pI‐tool. […]

For assay [1], the system named is NRP‐1. The assay can be described thus: SPR, α5β1 integrin binding to immobilized NRP‐1. Set-up: species or system human. The conditions noted are these: NRP‐1 immobilized, α5β1 integrin 20-500 nM. The procedure: SPR analysis of NRP‐1 interaction with α5β1 integrin or semaphorin 3A, in the absence or presence of Flt2‐11 peptide or ‘scrambled’ Flt2‐11. NRP‐1 is immobilized on sensor chip. (A) α5β1 integrin is injected at different concentrations (from bottom to top: 20 nM, cyan; 40 nM, red; 100 nM, green; 200 nM, blue; and 500 nM, black). […] (B) α5β1 integrin is injected at 200 nM concentration together with either Flt2‐11 peptide or scrambled Flt2‐11 peptide at different concentrations (no peptides, black; Flt2‐11 peptide […] and 20 μM, blue and cyan, respectively; scrambled Flt2‐11 peptide at 2 μM and 20 μM, red and purple, respectively). (C) Semaphorin 3A is injected at different concentrations (from bottom to top: 20 nM, cyan; 30 nM, red; 50 nM, green; 200 nM, blue; and 500 nM, black). […] (D) Semaphorin 3A is injected at 200 nM, and peptide Flt2‐11 at different concentrations (no peptides, black; Flt2‐11 peptide 1 μM and 10 μM blue and cyan, respectively; scrambled Flt2‐11 peptide 50 μM, red).
as §1
RU express the mass concentration‐dependent changes in the observed SPR signal, that is, the refractive index on the sensor chip surface. Changes in this signal are determined by the interaction between the immobilized protein (i.e., either NRP‐1 or VEGFR‐1) with the analyte protein (i.e., VEGFR‐1/Fc, α5β1 integrin or semaphorin 3A). […] Global fitting analyses of association and dissociation data for all ligand concentrations were carried out using BIAEVALUATION software 3.0 (Biacore, Uppsala, Sweden), which allows the ratio between association and dissociation constants (k on/k off) to be accurately determined. […]

Assay [2] has as its system NRP‐1. The assay can be described thus: SPR, semaphorin 3A binding to immobilized NRP‐1. Set-up: species or system human. As to conditions: NRP‐1 immobilized, semaphorin 3A 20-500 nM. On the procedure: SPR analysis of NRP‐1 interaction with α5β1 integrin or semaphorin 3A, in the absence or presence of Flt2‐11 peptide or ‘scrambled’ Flt2‐11. NRP‐1 is immobilized on sensor chip. (A) α5β1 integrin is injected at different concentrations (from bottom to top: 20 nM, cyan; 40 nM, red; 100 nM, green; 200 nM, blue; and 500 nM, black). […] (B) α5β1 integrin is injected at 200 nM concentration together with either Flt2‐11 peptide or scrambled Flt2‐11 peptide at different concentrations (no peptides, black; Flt2‐11 peptide […] and 20 μM, blue and cyan, respectively; scrambled Flt2‐11 peptide at 2 μM and 20 μM, red and purple, respectively). (C) Semaphorin 3A is injected at different concentrations (from bottom to top: 20 nM, cyan; 30 nM, red; 50 nM, green; 200 nM, blue; and 500 nM, black). […]
as §1
RU express the mass concentration‐dependent changes in the observed SPR signal, that is, the refractive index on the sensor chip surface. Changes in this signal are determined by the interaction between the immobilized protein (i.e., either NRP‐1 or VEGFR‐1) with the analyte protein (i.e., VEGFR‐1/Fc, α5β1 integrin or semaphorin 3A). […]

A further assay concerns the target T1, Recombinant human NRP‐1 (human, UniProt O14786 22-856).
T1 construct: Neuropilin-1, human, recombinant soluble protein; see the vendor's datasheet (as far as I recall an extracellular fragment with a C-terminal His tag); also called Neuropilin‐1; soluble NRP‐1; source: bought: R&D Systems (3870‐N1)
T1 sequence (looked up): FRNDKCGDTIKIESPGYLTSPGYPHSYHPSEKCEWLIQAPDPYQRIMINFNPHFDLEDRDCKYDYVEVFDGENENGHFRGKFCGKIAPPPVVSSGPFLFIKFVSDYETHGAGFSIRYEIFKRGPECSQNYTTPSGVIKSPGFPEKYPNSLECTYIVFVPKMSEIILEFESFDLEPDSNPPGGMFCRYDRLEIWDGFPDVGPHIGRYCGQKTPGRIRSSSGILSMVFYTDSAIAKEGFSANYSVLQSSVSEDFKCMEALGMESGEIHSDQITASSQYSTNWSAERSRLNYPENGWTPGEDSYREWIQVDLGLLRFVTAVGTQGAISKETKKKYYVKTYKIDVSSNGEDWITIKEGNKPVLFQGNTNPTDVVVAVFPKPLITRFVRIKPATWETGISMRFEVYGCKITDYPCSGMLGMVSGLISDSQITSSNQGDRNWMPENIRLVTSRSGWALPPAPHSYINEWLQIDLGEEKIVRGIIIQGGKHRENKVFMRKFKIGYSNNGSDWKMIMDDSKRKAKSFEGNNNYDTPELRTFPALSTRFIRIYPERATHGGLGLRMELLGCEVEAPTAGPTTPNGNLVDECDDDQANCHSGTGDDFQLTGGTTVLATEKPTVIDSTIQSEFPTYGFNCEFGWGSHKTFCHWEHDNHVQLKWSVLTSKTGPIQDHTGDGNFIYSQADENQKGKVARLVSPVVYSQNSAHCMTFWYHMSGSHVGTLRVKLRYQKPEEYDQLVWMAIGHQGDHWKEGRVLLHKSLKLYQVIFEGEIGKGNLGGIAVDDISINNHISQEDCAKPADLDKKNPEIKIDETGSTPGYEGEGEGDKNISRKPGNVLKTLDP
Briefly: SPR; BIACORE X, CM5; NRP-1 immobilised by amine coupling; analyte in HEPES-buffered saline (10 mM HEPES pH 7.4, 150 mM NaCl, 0.005% P20); global 1:1 Langmuir fit. As to conditions: both partners purified.

Another assay addresses T2, Purified α5β1 integrin (UniProt P08648 42-1049; P05556 21-728).
T2 construct: integrin alpha-5 subunit; integrin beta-1 subunit; As far as I recall this product is purified from human tissue; also called integrin α5β1; source: bought: Merck Millipore (CC1052), purified, octyl‐β‐D‐glucopyranoside formulation
Briefly: SPR; BIACORE X, CM5; VEGFR-1/Fc captured (about 200 RU) on amine-coupled protein A; α5β1 integrin injected; HEPES-buffered saline (10 mM HEPES pH 7.4, 150 mM NaCl, 0.005% P20); 1:1 Langmuir fit. As to conditions: both partners purified.

T2 sequence (P08648 42-1049, chain 1 of 2): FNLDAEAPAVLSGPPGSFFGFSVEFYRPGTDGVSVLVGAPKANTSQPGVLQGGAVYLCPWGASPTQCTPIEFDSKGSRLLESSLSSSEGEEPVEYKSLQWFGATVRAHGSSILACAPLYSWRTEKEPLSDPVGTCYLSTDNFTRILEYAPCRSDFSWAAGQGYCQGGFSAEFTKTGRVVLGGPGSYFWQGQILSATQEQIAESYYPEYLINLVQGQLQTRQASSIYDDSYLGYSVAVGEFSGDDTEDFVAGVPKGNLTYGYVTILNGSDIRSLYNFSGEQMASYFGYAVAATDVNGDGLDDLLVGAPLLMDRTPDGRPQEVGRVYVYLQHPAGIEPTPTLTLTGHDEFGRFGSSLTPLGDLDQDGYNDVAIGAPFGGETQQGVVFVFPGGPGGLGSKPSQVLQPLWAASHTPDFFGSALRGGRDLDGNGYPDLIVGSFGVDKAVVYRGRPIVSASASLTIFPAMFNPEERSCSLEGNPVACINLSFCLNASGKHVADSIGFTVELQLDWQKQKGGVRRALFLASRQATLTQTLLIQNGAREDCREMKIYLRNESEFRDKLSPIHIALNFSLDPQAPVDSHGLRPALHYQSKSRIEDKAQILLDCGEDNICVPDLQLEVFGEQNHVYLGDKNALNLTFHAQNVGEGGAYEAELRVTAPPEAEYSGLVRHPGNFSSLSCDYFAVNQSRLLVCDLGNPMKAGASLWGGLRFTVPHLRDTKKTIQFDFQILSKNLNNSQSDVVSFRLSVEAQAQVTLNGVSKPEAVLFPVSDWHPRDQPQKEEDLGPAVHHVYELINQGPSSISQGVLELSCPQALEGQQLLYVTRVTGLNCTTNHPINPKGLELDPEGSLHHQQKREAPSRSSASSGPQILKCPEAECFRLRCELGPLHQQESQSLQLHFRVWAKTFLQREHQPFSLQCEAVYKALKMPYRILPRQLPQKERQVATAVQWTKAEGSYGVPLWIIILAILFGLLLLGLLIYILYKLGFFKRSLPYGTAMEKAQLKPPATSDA
T2 sequence (P05556 21-728, chain 2 of 2): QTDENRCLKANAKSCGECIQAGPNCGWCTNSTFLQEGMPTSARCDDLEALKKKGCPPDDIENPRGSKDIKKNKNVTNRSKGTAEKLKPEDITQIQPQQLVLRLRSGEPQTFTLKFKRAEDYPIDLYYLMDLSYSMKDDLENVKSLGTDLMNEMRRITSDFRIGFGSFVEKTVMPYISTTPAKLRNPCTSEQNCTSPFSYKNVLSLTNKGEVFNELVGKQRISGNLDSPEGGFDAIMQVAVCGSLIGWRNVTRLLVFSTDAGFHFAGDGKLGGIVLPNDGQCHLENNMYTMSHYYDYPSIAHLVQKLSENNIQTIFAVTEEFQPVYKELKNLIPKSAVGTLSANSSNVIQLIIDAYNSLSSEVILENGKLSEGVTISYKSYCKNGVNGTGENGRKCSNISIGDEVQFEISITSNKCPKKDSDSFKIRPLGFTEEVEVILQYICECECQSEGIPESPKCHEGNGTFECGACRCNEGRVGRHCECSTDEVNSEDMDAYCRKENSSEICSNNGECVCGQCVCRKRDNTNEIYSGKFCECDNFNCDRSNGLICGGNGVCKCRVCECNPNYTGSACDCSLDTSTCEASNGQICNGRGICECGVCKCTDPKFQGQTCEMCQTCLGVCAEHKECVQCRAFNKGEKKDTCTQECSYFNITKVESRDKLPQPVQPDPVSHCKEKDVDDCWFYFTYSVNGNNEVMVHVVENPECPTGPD

Take “α5β1 integrin: Purified α5β1 integrin (CC1052), Merck Millipore”: the k off in the assay with sVEGFR‐1 and in the assay on NRP‐1 [1] was 0.00029 s⁻¹ in each case. Further, the values for the k on with sVEGFR‐1 and in the assay on NRP‐1 [1] were 1500 M⁻¹ s⁻¹ and 21000 M⁻¹ s⁻¹, respectively. Further, the Kd at sVEGFR‐1 (read-out: K D, sVEGFR‐1/α5β1 integrin) was determined as 195 ± 40 nM; at NRP‐1 [1] (read-out: K D, NRP‐1/α5β1 integrin), 14 ± 4 nM.

B1: semaphorin 3A (ligand)
chain: NYQNGKNNVPRLKLSYKEMLESNNVITFNGLANSSSYHTFLLDEERSRLYVGAKDHIFSFDLVNIKDFQKIVWPVSYTRRDECKWAGKDILKECANFIKVLKAYNQTHLYACGTGAFHPICTYIEIGHHPEDNIFKLENSHFENGRGKSPYDPKLLTASLLIDGELYSGTAADFMGRDFAIFRTLGHHHPIRTEQHDSRWLNDPKFISAHLISESDNPEDDKVYFFFRENAIDGEHSGKATHARIGQICKNDFGGHRSLVNKWTTFLKARLICSVPGPNGIDTHFDELQDVFLMNFKDPKNPVVYGVFTTSSNIFKGSAVCMYSMSDVRRVFLGPYAHRDGPNYQWVPYQGRVPYPRPGTCPSKTFGGFDSTKDLPDDVITFARSHPAMYNPVFPMNNRPIVIKTDVNYQFTQIVVDRVDAEDGQYDVMFIGTDVGTVLKVVSIPKETWYDLEEVLLEEMTVFREPTAISAMELSTKQQQLYIGSTAGVAQLPLHRCDIYGKACAECCLARDPYCAWDGSACSRYFPTAKRRTRRQDIRNGDPLTHCSDLHHDNHHGHSPEERIIYGVENSSTFLECSPKSQRALVYWQFQRRNEERKEEIRVDDHIIRTDQGLLLRSLQQKDSGNYLCHAVEHGFIQTLLKVTLEVIDTEHLEELLHKDDDGDGSKTKEMSNSMTPSQKVWYRDFMQLINHPNLNTMDEFCEQVWKRDRKQRRQRPGHTPGNSNKWKHLQENKKGRNRRTHEFERAPRSV
Regarding B1, in the assay on NRP‐1 [2], the k off was found to be 9e-05 s⁻¹ and the k on was 3700 M⁻¹ s⁻¹. In the assay with Recombinant human NRP‐1, the Kd worked out at 24 ± 6 nM, the koff is 9e-05 s⁻¹ and the association rate constant (kon) was 3700 M⁻¹ s⁻¹.

B2: Recombinant human VEGFR‐1/Fc (Fc fusion, UniProt P17948 27-758, looked up)
chain: SKLKDPELSLKGTQHIMQAGQTLHLQCRGEAAHKWSLPEMVSKESERLSITKSACGRNGKQFCSTLTLNTAQANHTGFYSCKYLAVPTSKKKETESAIYIFISDTGRPFVEMYSEIPEIIHMTEGRELVIPCRVTSPNITVTLKKFPLDTLIPDGKRIIWDSRKGFIISNATYKEIGLLTCEATVNGHLYKTNYLTHRQTNTIIDVQISTPRPVKLLRGHTLVLNCTATTPLNTRVQMTWSYPDEKNKRASVRRRIDQSNSHANIFYSVLTIDKMQNKDKGLYTCRVRSGPSFKSVNTSVHIYDKAFITVKHRKQQVLETVAGKRSYRLSMKVKAFPSPEVVWLKDGLPATEKSARYLTRGYSLIIKDVTEEDAGNYTILLSIKQSNVFKNLTATLIVNVKPQIYEKAVSSFPDPALYPLGSRQILTCTAYGIPQPTIKWFWHPCNHNHSEARCDFCSNNEESFILDADSNMGNRIESITQRMAIIEGKNKMASTLVVADSRISGIYICIASNKVGTVGRNISFYITDVPNGFHVNLEKMPTEGEDLKLSCTVNKFLYRDVTWILLRTVNNRTMHYSISKQKMAITKEHSITLNLTIMNVSLQDSGTYACRARNVYTGEEILQKKEITIRDQEAPYLLRNLSDHTVAISSSTTLDCHANGVPEPQITWFKNNHKIQQEPGIILGPGSSTLFIERVTEEDEGVYHCKATNQKGSVESSAYLTVQGTSDKSNLE
notes: VEGFR-1 (Flt-1), human, recombinant Fc chimera; also called sVEGFR‐1; sVEGFR‐1/Fc; source: bought: R&D Systems (321‐FL‐050)
Consider B2, for which, in the assay with Purified α5β1 integrin, the Kd turned out to be 195 ± 40 nM, the koff was determined as 0.00029 s⁻¹ and the kon came out at 1500 M⁻¹ s⁻¹. Besides, in the assay with Recombinant human NRP‐1, the Kd came to 25 ± 4 nM, the koff was found to be 0.0003 s⁻¹ and the kon came to 12000 M⁻¹ s⁻¹.
